Reference: the DeepSol protein solubility set

Assay: soluble on expression in E. coli; label from the status in PepcDB or PDB records

Row | Sequence | soluble on expression in E. coli
1 | MGGSHHHHHHGMASWPPPRCPLGVPLVLDGCGCCRVCARRLGEPCDQLHVCDASQGLVCQPGAGPGGRGALCLLAEDDSSCEVNGRLYREGETFQPHCSIRCRCEDGGFTCVPLCSEDVRLPSWDCPHPRRVEVLGKCCPEWVCGQGGGLGTQPLPAQGPQFSGLVSSLPPGVPCPEWSTAWGPCSTTCGLGMATRVSNQNRFCRLETQRRLCLSRPCPPSRGRSPQNSAF | not soluble
2 | SEEDNRAPQLWRKTLTAPAPFADETNCQCQAPHEKLTIAQARLGTPADRPVRVYADGIFDLFHSGHARALMQAKTLFPNSYLLVGVCSDDLTHKFKGFTVMNEAERYEALRHCRYVDEVIRDAPWTLTPEFLEKHKIDFVAHDDIPYSSAGSDDVYKHIKEAGMFVPTQRTEGISTSDIITRIVRDYDVYARRNLQRGYTAKELNVSFINEKRYRFQNQVDKMKEKVKNVEERSKEFVNRVEEKSHDLIQKWEEKSREFIGNFLELFGPDGAWKQMFQERSSRMLQALSPKQSPVSSPTRSRSPSRSPSPTFSWLPLKTSPPSSPKAASASISSMSEGDEDEK | soluble
3 | MSLLWSRCTLFLFLCPIRVRGREHIPGKGPFVVMANHQGACDIFMMYGYLGIPFKWVLKEGIRKLPFVGYACRSAGFVFVDDTRPSSIAHTMDQAKRVLAEGTSIFIFPEGSRTRNGRLARFKKGGFLMADELGVPIIPVSLDGSYRVLPSGKLIPRPHRLTLTIHPPLSVADFGERPLCISEAVRETSRRIASVLPEEMAATQSKEGHHHHHH | not soluble
4 | MTVTFYSYPKCGTCQKAKKWFEANDVAYEMIHIVENPPSKEDLRNLHEKSELPLKKFFNTSGMRYRELGLKDKLKDASEDEMYELLASDGMLIKRPIVTDGTNVTLGFNEEQFESVWKKYQ | not soluble
5 | DNSSFDSLSPEPKSRFAMLDDVKILANGLLQLGHGLKDFVHKTKGQINDIFQKLNIFDQSFYDLSLQTSEIKEEEKELRRTTYKLQVKNEEVKNMSLELNSKLESLLEEKILLQQKVKYLEEQLTNLIQNQPETPEHPEVTSLKTFVEKQDNSIKDLLQTVEDQYKQLNQQHSQIKEIENQLRRTSIQEPTEISLSSKPRAPRTTPFLQLNEIRNVKHDGIPAECTTIYNRGEHTSGMYAIRPSNSQVFHVYCDVISGSPWTLIQHRIDGSQNFNETWENYKYGFGRLDGEFWLGLEKIYSIVKQSNYVLRIELEDWKDNKHYIEYSFYLGNHETNYTLHLVAITGNVPNAIPENKDLVFSTWDHKAKGHFNCPEGYSGGWWWHDECGENNLNGKYNKPRAKSKPERRRGLSWKSQNGRLYSIKSTKMLIHPTDSESFE | not soluble
6 | TGSIGSAARKILLAKTDVQLTLYSRRADRLKLIVDRETAVAGSVTDDDQLDQAIKGQDFVFVALNGDMDSFAAHIISAMERNGIQRLIFITTMGIYQEIPAWLGDSPEPYHNPILKSFRQAADRIEQSDLNYTIIRPGWYNN | not soluble
7 | MSLANFVHEGDLPDGVFADAEIIAIDSETMGLRLRRDPLCVVQLSAGDGDAHVVRLSRPDYDCPNLKALLTNPKVLKLFHFGRFDIAMFELHLGVVTAPVYCTKIASKLARTYTDRHGLKDVTRELLGVELSKVQQSSDWGAPSLSVDQVAYAASDVLHLHGLRLKLNAMLEREGRMALAQHAFDYLPHRASLDLAGWEEMDIFAHSEGHHHHHH | soluble
8 | MKILTIDTSTSTCSAALSIDGRCAGEYLLEAERHPSERLLAAVDILLRDTGMELEELDGFGVALGPGSFTGVRIGVATVKGLALATGKPAVGFSSLAMLALNLPWSLLPVCTLFDARKKEVYGGLYRVTSAPEPVIVDRVAPPERFLEAIEGEAIFVGDGAIRYREAIESILGHRAFFAPAHCHQPRASAGALLAGELLRTGAAVPLPLLNPTYIRPSEAELARMCQKAVAAALEHHHHHH | not soluble
9 | MGSDKIHHHHHHMKPGFVDPVFDAQAVFRAALLATAYPGRVVPLDRTLTAPRPFSSATAALCLSLMDFETPAWLDNSLDCGELTAWLRFHCSLPLTETAGEARFAIVSDPANLPRLCELHPGDAEYPDRSTTLIIQVPSFTDGPTTTWTGPGVNGSIPVGIAGLPFWFWADWDLNSELYPRGIDVVFTSGNAVIGLPRTIKVEA | not soluble
10 | MMDEEGAALPVWSRRLQQLTERSGLSQAELARRAGMSRDTYNRYCRGLTRPPRKKVLALAELFGVETWEIDPLEAGIAALRRESERSLEALGEQPIPSTPPYTLSPPSSGDPRMMHLRVDVDVRIETALRIAELLNREGSS | not soluble
11 | VTSDPGTAAPVKRTAEQSRSLIVDAAGRAFATRPYREITLKDIAEDAGVSAPLIIKYFGSKEQLFDALVDFRAAAEIVFSGPLDGLGERMVSMFARPLEPYKPLSLNILFMSGPSEESSRKLRANYSAQMIDALAERLPGRDARLRAELVMSMLTGLAVMRRKMMQEHATGTPEEVVAHYAPLVQELLDG | soluble
12 | YFNLQFGANLDVYLTKKWSVGADLLLSFKTYQYKNTLLGYSELTMKENQLWLELPIVLKYTMGQKKLRYYLQAGGAVSMILSSNSNIVRKDAATQSNQAIGPDINTRDLRNMFNYSLVGGGGIRYKAGYGYLVLDVKYMYGLNNISDMDNKYSNDELIYKYGYIDNDFTLNSLMFSIGYYKSFYKPKKLPTYEK | not soluble
13 | MQSLDPLFARLSRSKFRSRFRLGMKERQYCLEKGAPVIEQHAADFVAKRLAPALPANDGKQTPMRGHPVFIAQHATATCCRGCLAKWHNIPQGVSLSEEQQRYIVAVIYHWLVVQMNQP | soluble
14 | MGSDKIHHHHHHMKKIQLTNAHKEKLFQIPLFRDLPLNIKESLLDKLDFVIYAADKKEIVVTQGTPCNKLYVLLEGKLRTDIIDGLGNEVMIEYIIAPRTFATPHLFNSNNTLPATFTALEDSVVLMATKDSTFKVISQDPQVLHNFLCIAGNCNICTVSRLKPLSRKTVRERFIVYLFEHKKKDSLTVEIMHTQSQLAEYLNVSRPALSKEINKIIKEGLITMEGKKIEILNKMALEKYL | not soluble
15 | MFLTRSEYDRGVSTFSPEGRLFQVEYSLEAIKLGSTAIGIATKEGVVLGVEKRATSPLLESDSIEKIVEIDRHIGCAMSGLTADARSMIEHARTAAVTHNLYYDEDINVESLTQSVCDLALRFGEGASGEERLMSRPFGVALLIAGHDADDGYQLFHAEPSGTFYRYNAKAIGSGSEGAQAELLNEWHSSLTLKEAELLVLKILKQVMEEKLDENNAQLSCITKQDGFKIYDNEKTAELIKELKEKEAAESPEEADVEMS | soluble
16 | MTVSPSYDAIVIGSGIGGLVTATQLVSKGLKVLVLERYLIPGGSAGYFEREGYRFDVGASMIFGFGDRGTTNLLTRALAAVGQALETLPDPVQIHYHLPGGLDPKVHREYEAFLQELIAKFPQEAQGIRRFYDECWQVFNCLNTMELLSLEEPRYLMRVFFQHPGACLGLVKYLPQNVGDIARRHIQDPDLLKFIDMECYCWSVVPADLTPMINAGMVFSDRHYGGINYPKGGVGQIAESLVAGLEKFGGKIRYGARVTKIIQENNQAIGVELANGEKIYGRRIVSNATRWDTFGALTGDQPLPGKEKRWRRNYQQSPSFLSLHLGVEADLLPEGTECHHILLEDWDDLEKEQGTIFVSIPTLLDPSLAPDGYHIIHTFTPSWLESWQNLSPQEYEAKKEADSGKLIDRLEAIFPGLDRALDYMEIGTPRSHRRFLGRQNGTYGPIPRRRLPGLLPMPFNRTAIPGLYCVGDSTFPGQGLNAVAFSGFACAHRLAVDLGVRLEHHHHHH | not soluble
17 | HHMDEEYDVIVLGTGLTECILSGIMSVNGKKVLHMDRNPYYGGESSSITPLEELYKRFQLLEGPPETMGRGRDWNVDLIPKFLMANGQLVKMLLYTEVTRYLDFKVVEGSFVYKGGKIYKVPSTETEALASNLMGMFEKRRFRKFLVFVANFDENDPKTFEGVDPQNTSMRDVYRKFDLGQDVIDFTGHALALYRTDDYLDQPCLETINRIKLYSESLARYGKSPYLYPLYGLGELPQGFARLSAIYGGTYMLNKPVDDIIMENGKVVGVKSEGEVARCKQLICDPSYVPDRVRKAGQVIRIICILSHPIKNTNDANSCQIIIPQNQVNRKSDIYVCMISYAHNVAAQGKYIAIASTTVETTDPEKEVEPALELLEPIDQKFVAISDLYEPIDDGSESQVFCSCSYDATTHFETTCNDIKDIYKRMAGSAFDFENMKRKQNDVFGEADQ | soluble
18 | MSLTTMLEVAKRAGVSKATVSRVLSGNGYVSQETKDRVFQAVEESGYRPNLLARNLSAKSTQTLGLVVTNTLYHGIYFSELLFHAARMAEEKGRQLLLADGKHSAEEERQAIQYLLDLRCDAIMIYPRFLSVDEIDDIIDAHSQPIMVLNRRLRKNSSHSVWCDHKQTSFNAVAELINAGHQEIAFLTGSMDSPTSIERLAGYKDALAQHGIALNEKLIANGKWTPASGAEGVEMLLERGAKFSALVASNDDMAIGAMKALHERGVAVPEQVSVIGFDDIAIAPYTVPALSSVKIPVTEMIQEIIGRLIFMLDGGDFSPPKTFSGKLIRRDSLIAPSREGHHHHHH | soluble
19 | MGSDKIHHHHHHMKDLVYLNYAATSYKKFPATIEALTAYLAENQFMNYGRNAPLLREGLPLLETRQLLADFFQAPSAAQITFTNNATTSLNLALAGILQPGDHVITTMLEHHAVARPLHLLEKERGISVTYVACQKTGLLEVEDIQRAWRTNTKALVMTHASNVLGTILPIEECFQWAQQKGLLTILDAAQTAGFLPIKMTQMAIDVLAFTGHKSLYGLAGIGGLAFSERGAEAVKPLMAGGTGSHSNSFDQPSFLPDKFEAGTLNSLGILSLNSSIKELNKIGLAAIQKHERTLMQNFLNGLSGLPVTILGTKDVAQTVPVVSITLWNQEETIVAQQLAEQYGIMTRAGLHCAPLAHQTAGTLATGTLRFSFGWQTTPEEITWTIHALQELLI | not soluble
20 | MGKHKVGAVFLAGVLAMGTVMTGCSGKDETEGKTVIEMVQYKPEAVDIFEQFQDEFNATHDDIYLKIDSPNDAMTILKTRFIREDNPDIIGIGGDINYSNFLDADMLMDISDFEGLNDIKEKYLEMNKDLEYVPKDGVYAVPYMANAAGILFNRDMFEEHGWEVPTTWTEFTNLCDQIQSEGIQPLYFGFKDTWTTLAPWNAIAVSLCDSDLTYQVNSGKTTFAENYREVAEKEKALLTYGQKDPVSQGYNDACTAFARGASAMFTIGSYAISQIKSVNPDMNIGSFVFPANEDADKNVLNSGNDLMFCVMKDCKNKEAAYEVLSYMLEDENVKKYLNAQSAVPCKKGDFEVTPELEEMRDYIENGIVADYQDHHYPSEMSVDAMIQTYLMDDSADATDTFMKRFDKEWIRYNRDIVAKVKAYEEGNDHE | not soluble
21 | MMTQGPNLIGIHTNTKENEETQKFVNWFLNTSLTWDNNESKTPAQYFTESASYILPLKETFTGSNNKGQSGKNDGKNSNNTFKAKALELFKEQSENKIVGYSDPSDFRGGKFRESIGSAFNATVNSHVDFNTFVANFRANLGSGYDK | soluble
22 | VAKKKRKLKVIPLGGLGEIGKNITVFEYGDDIFVVDCGIAFPEDDMLGIDLVIPDISYLTKNREKVRGIVLTHGHEDHIGALPYVLKDLNVPVYGTKLTLGLLEQKLEEHGLLNNVVLNVVKHSDVIELGCFKVEFIRSTHSIADSTALAIFTPVGTIFHTGDFKIDYTPIEGEPIDLARLAELGKKGVLLLMCDSTNVEREGYTMSEKTVGETFDEIFMNAKNRILVATFASNVHRIQQIVNAAIKFGRKIAICGRSMVNVVNVAMELGYMNVPEGLIIDIDHINKYPPEKIVIITTGSQGEPMSALTRMASGDHKKVEIIPGDLVIISANPIPGNEKLVSRVVNDLFKKGAEVIYESLADIHVSGHASQEELKLIHRLIRPKYFMPVHGEYRHLKRHANLAVELGMSPENIFIMDIGKVLELTNDSAKINGSVNAGRVLVDGLGVGDVGNIVLRDRKHLSQDGLIVVVITIEGDTGNVIAGPDVISRGFVYVRESEDLMEEIREVCKAALQKCNDKKKNDWSTKKSIIRDALRDFLYERTKRRPMILPIIMEV | soluble
